The record followed here is publication doi:10.1101/773283 (bioRxiv, 2020).

“And” between values parts separate entries of the source, which are not always exact repeats. Identical values can stand only once.

Data set [1] concerns the target human vinculin D1 and D2 domains (D1D2) (human) (UniProt P18206). Kind of data set: SEC-MALS. A general note: In gel filtration, larger molecules generally elute earlier.
Data set [2] has as its target full-length human vinculin (HV) (human) (UniProt P18206). As to the kind of experiment: ELISA.
Data set [3] concerns the target human vinculin D1 subdomain (HV 1-258) (human) (UniProt P18206). Kind of data set: native gel or EMSA.
Data set [4] has as its target human vinculin D1 and D2 domains (D1D2) (human) (UniProt P18206). As to the kind of experiment: native gel or EMSA. A general note: In EMSA bound probe runs differently from free probe, usually more slowly.
For data set [5], the target named is cysteine-clamped vinculin D1D2 Q68C A396C (human) (UniProt P18206). Kind of data set: native gel or EMSA.
Data set [6] deals with human vinculin D1 subdomain (HV 1-258) (human) (UniProt P18206). As to the kind of experiment: SEC-MALS.
The target in data set [7] is human vinculin HV 1-834 containing the D1-D4 domains (human) (UniProt P18206). Kind of data set: SEC-MALS.
The data set “SEC-MALS” deals with the molecule itself. Kind of data set: SEC-MALS.

One may read the stoichiometry N as the number of molecules, sites or subunits per partner or assembly. As to “human vinculin D1 and D2 domains (D1D2) (from UniProt P18206-2 1-492) (domain or fragment)”, the stoichiometry N in data set [1] was found to be 3.

A word on the EC50: it is the concentration giving half of the maximal effect. Regarding “IpaA derivative containing VBS1-2 (A524) (from UniProt P18010 524-633) (domain or fragment)”, the stoichiometry N (D1D2 per A524) in data set [1] was 1 and 2. The molecule further had an EC50 in data set [2] of 3.7 nM. Moreover, the stoichiometry N in data set [3], in data set [4] and in data set [5] was 1 each time.

For the molecule “IpaA derivative containing VBS1-3 (A483) (from UniProt P18010 483-633) (domain or fragment)”, the stoichiometry N was 3 D1 per A483 in data set [6], 1 in data set [3], 1 in data set [4] and 1 in data set [5]. Also, the stoichiometry N (D1D4 per A483) in data set [7] was 1 and 2. In data set [1], this molecule showed a stoichiometry N (D1D2 per A483) of 2. The EC50 in data set [2] worked out at 6.1 nM. Besides, the stoichiometry N (A483 per D1D2) in data set [4] was 1 and 2.

B1: human vinculin HV 1-834 containing the D1-D4 domains (domain or fragment, UniProt P18206-2 1-834, looked up)
chain: MPVFHTRTIESILEPVAQQISHLVIMHEEGEVDGKAIPDLTAPVAAVQAAVSNLVRVGKETVQTTEDQILKRDMPPAFIKVENACTKLVQAAQMLQSDPYSVPARDYLIDGSRGILSGTSDLLLTFDEAEVRKIIRVCKGILEYLTVAEVVETMEDLVTYTKNLGPGMTKMAKMIDERQQELTHQEHRVMLVNSMNTVKELLPVLISAMKIFVTTKNSKNQGIEEALKNRNFTVEKMSAEINEIIRVLQLTSWDEDAWASKDTEAMKRALASIDSKLNQAKGWLRDPSASPGDAGEQAIRQILDEAGKVGELCAGKERREILGTCKMLGQMTDQVADLRARGQGSSPVAMQKAQQVSQGLDVLTAKVENAARKLEAMTNSKQSIAKKIDAAQNWLADPNGGPEGEEQIRGALAEARKIAELCDDPKERDDILRSLGEISALTSKLADLRRQGKGDSPEARALAKQVATALQNLQTKTNRAVANSRPAKAAVHLEGKIEQAQRWIDNPTVDDRGVGQAAIRGLVAEGHRLANVMMGPYRQDLLAKCDRVDQLTAQLADLAARGEGESPQARALASQLQDSLKDLKARMQEAMTQEVSDVFSDTTTPIKLLAVAATAPPDAPNREEVFDERAANFENHSGKLGATAEKAAAVGTANKSTVEGIQASVKTARELTPQVVSAARILLRNPGNQAAYEHFETMKNQWIDNVEKMTGLVDEAIDTKSLLDASEEAIKKDLDKCKVAMANIQPQMLVAGATSIARRANRILLVAKREVENSEDPKFREAVKAASDELSKTISPMVMDAKAVAGNISDPGLQKSFLDSGYRILGAVAKVREA
B1: the “stoichiometry N” value in the data set “SEC-MALS” came out at 3.
